One test addresses T1, human FcRn (human, UniProt P55899 24-297; P61769 21-119, limits assumed, biotinylated).
T1 construct: bought; also called FcRn pH6
Kind of test: SPR, pH6.0.

The next test concerns the target T2, human FcγR3A 158F (human, UniProt P08637 17-208).
T2 construct: extracellular domain
Kind of test: SPR 37C, steady state.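 Also: fc variants captured on chip-bound human BTLA ectodomain, recombinant FcγR ectodomains injected as analyte at varied concentrations, double-referenced equilibrium binding fitted to Langmuir model.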

A further test deals with T3, human FcγR3A 158V (human, UniProt P08637 17-208).
T3 construct: extracellular domain
As to the kind of experiment: SPR 37C, steady state.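 Also: fc variants captured on chip-bound human BTLA ectodomain, recombinant FcγR ectodomains injected as analyte at varied concentrations, double-referenced equilibrium binding fitted to Langmuir model.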

The target of the next test is T4, human FcγR3B (human, UniProt O75015 17-200, limits assumed).
T4 construct: extracellular domain; also called CD16B
As to the kind of experiment: SPR 37C, steady state.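 Also: fc variants captured on chip-bound human BTLA ectodomain, recombinant FcγR ectodomains injected as analyte at varied concentrations, double-referenced equilibrium binding fitted to Langmuir model.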

The target of another test is T5, human FcγR1A (human, UniProt P12314 16-288, biotinylated).
T5 construct: bought; also called CD64A
As to the kind of experiment: SPR 37C, kinetic; hIgG1 N297A Fc variant.

In another test the target is T6, human FcγR2A 131R (human, UniProt P12318 34-217).
T6 construct: extracellular domain
T6 sequence (looked up): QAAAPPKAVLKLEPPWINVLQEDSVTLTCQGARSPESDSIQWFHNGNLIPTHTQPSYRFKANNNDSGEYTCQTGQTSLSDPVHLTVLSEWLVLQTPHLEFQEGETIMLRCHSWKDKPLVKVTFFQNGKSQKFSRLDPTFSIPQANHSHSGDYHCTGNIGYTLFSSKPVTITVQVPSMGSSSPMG
Kind of test: SPR 37C, steady state; hIgG1 N297A Fc variant.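 Also: fc variants captured on chip-bound human BTLA ectodomain, recombinant FcγR ectodomains injected as analyte at varied concentrations, double-referenced equilibrium binding fitted to Langmuir model.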

For the next test, the target named is T7, human FcγR2A 131H (human, UniProt P12318 34-217).
T7 construct: extracellular domain
T7 sequence (looked up): T6 sequence (looked up) with R134H
Kind of test: SPR 37C, steady state; hIgG1 N297A Fc variant.

Another test concerns the target T8, human FcγR2B (human, UniProt P31994 43-217).
T8 construct: extracellular domain; also called hFcγR2B; CD32B
T8 sequence (looked up): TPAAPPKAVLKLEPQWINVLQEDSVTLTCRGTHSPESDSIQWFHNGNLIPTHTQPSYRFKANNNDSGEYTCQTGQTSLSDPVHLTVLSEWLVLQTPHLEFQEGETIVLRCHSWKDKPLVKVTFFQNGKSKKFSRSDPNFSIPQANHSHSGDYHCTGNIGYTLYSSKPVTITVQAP
As to the kind of experiment: SPR 37C, steady state; hIgG1 N297A Fc variant.

Substitutions are numbered along the chain they refer to.

T2 sequence (P08637 17-208): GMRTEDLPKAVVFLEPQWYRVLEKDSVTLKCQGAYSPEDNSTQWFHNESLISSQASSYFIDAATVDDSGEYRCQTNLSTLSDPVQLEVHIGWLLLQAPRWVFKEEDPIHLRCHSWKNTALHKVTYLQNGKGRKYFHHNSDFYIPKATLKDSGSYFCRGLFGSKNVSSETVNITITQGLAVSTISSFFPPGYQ
T4 sequence (O75015 17-200 limits assumed): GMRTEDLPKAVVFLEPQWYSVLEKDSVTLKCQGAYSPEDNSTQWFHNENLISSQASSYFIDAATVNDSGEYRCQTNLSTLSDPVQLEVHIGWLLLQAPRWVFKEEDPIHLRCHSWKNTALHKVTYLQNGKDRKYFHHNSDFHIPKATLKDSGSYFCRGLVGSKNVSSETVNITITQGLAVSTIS
T5 sequence (P12314 16-288): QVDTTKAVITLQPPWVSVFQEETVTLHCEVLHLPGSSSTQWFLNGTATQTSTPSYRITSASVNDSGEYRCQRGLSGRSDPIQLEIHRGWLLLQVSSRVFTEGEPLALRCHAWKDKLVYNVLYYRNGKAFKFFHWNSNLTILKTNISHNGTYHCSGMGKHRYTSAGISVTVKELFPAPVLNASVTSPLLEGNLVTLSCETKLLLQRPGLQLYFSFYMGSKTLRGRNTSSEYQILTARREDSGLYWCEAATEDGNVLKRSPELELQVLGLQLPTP
T1 sequence (P55899 24-297 limits assumed, chain 1 of 2): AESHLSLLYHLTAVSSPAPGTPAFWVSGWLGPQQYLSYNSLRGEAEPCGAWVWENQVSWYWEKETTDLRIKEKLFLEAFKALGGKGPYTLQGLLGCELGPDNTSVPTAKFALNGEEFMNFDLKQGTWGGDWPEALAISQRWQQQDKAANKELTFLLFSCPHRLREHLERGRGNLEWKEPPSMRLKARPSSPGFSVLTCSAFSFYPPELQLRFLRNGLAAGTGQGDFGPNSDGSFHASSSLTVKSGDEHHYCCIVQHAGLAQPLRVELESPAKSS
T1 sequence (P61769 21-119 limits assumed, chain 2 of 2): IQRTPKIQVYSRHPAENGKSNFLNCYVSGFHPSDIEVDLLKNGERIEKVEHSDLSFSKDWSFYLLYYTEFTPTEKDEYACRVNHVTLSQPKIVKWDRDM
T3 sequence (P08637 17-208 F176V): as the sequence (P08637 17-208) above, with F160V counted along it
Method for human FcγR1A: For the high affinity FcR interactions (FcγR1A, and also FcRn assessed at pH6.0) the binding was assessed in a kinetic analysis with antibody as analyte. […] Reference flow cell 1 was left empty in all channels. Purified antibody was then injected at a single concentration and on/off rates calculated by curve fitting on BiaEvaluation software. […] IgG Fc has two binding sites for FcRn so this assessment performed with FcRn immobilised at high density provides an avidity estimate for the interaction rather than a true KD.
Method for human FcγR2A 131H: (§1) For the low affinity FcγRs (FcγR2A, FcγR2B, FcγR3A and FcγR3B) the interactions were assessed by surface plasmon resonance with the recombinantly expressed FcRs (extracellular domains only) as analyte. Briefly, recombinant human BTLA extracellular domain (BTLA^K31-R151) was covalently immobilised to both flow cells of all channels of a CMS Series S sensor chip using the GE Healthcare Amine coupling kit. The 2.8.6 Fc variant to be assessed was then captured (approx. 500-1000 response units) in flow cell 2 of each channel. Steady state affinity analysis was then performed by injecting varying concentrations of FcR in multiple cycles and measuring equilibrium binding. Double referencing was used (subtracting the signal in the reference Fc1 and also subtracting the signal from a blank zero concentration injection). KDs were calculated from the Langmuir curves (plotting equilibrium binding against analyte concentration to determine the concentration required for half maximal binding).
Method for human FcγR2A 131R: as §1
Method for human FcγR2B: as §1
Method for human FcγR3A 158F: as §1
Method for human FcγR3A 158V: as §1
Method for human FcγR3B: as §1

B1: humanised 2.8.6 hIgG1 N297A (antibody)
heavy: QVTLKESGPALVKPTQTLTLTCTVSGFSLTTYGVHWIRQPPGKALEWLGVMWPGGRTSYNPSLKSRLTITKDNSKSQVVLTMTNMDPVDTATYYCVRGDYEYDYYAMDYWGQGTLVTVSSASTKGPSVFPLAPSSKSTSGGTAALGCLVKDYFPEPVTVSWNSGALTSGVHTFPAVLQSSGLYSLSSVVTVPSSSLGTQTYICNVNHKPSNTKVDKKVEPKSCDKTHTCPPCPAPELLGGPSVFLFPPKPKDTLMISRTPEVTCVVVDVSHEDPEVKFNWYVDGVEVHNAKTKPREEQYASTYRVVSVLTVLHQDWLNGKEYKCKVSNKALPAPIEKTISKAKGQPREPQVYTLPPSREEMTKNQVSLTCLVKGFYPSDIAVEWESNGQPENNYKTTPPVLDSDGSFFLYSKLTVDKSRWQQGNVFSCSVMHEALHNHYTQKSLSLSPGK
light: EIVLTQSPATLSLSPGERATLSCRASSSVSYMHWYQQKPGQAPRPLIYATSNRATGIPARFSGSGSGTDYTLTISSLEPEDFAVYYCHQWSSNPYTFGQGTKLEIKRTVAAPSVFIFPPSDEQLKSGTASVVCLLNNFYPREAKVQWKVDNALQSGNSQESVTEQDSKDSTYSLSSTLTLSKADYEKHKVYACEVTHQGLSSPVTKSFNRGEC
notes: Fc variant with the variable domains of humanised 2.8.6; copies: 2 + 2
As to B1, in the test with human FcRn, the “avidity (FcRn pH6)” value was determined as 9.41 nM. The binding result in the test with human FcγR3A 158F, with human FcγR3A 158V and with human FcγR3B was “no binding” each time. Also, the Kd was 8.7 µM with human FcγR1A, 447 µM in the test with human FcγR2A 131R, 2150 µM with human FcγR2A 131H and 1080 µM in the test with human FcγR2B.

Source of the values: patent US20230235058A1 (OXFORD UNIVERSITY INNOVATION, published 2023).
